This assay addresses T1, GST-mAsxl1 (aa 1193-1514) (mouse, UniProt P59598 1193-1514).
T1 construct: also called GST-fused Asxl1 protein; source: E. coli, purified (glutathione-Sepharose beads)
T1 sequence (looked up): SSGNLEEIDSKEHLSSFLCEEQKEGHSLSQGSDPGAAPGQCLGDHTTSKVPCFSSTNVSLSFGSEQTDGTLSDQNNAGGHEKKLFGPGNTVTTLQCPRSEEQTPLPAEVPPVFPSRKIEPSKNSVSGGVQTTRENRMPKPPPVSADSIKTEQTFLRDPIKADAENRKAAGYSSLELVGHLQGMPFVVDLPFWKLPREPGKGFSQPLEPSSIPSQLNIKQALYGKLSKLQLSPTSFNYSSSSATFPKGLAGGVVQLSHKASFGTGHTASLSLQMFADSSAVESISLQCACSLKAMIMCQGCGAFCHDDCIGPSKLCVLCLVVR
The assay can be described thus: pull-down; GST pull-down; GST-mAsxl1 on glutathione-Sepharose, His-hLHX2 purified on Ni-NTA; bound protein detected by anti-His Western blot. The note with it: both partners purified.

B1: His-hLhx2 (aa 42-221) (domain or fragment, human, UniProt P50458 42-221, looked up)
chain: MPSISSDRAALCAGCGGKISDRYYLLAVDKQWHMRCLKCCECKLNLESELTCFSKDGSIYCKEDYYRRFSVQRCARCHLGISASEMVMRARDLVYHLNCFTCTTCNKMLTTGDHFGMKDSLVYCRLHFEALLQGEYPAHFNHADVAAAAAAAAAAKSAGLGAAGANPLGLPYYNGVGTVQ
notes: LHX2, human (hLHX2), residues 42-221; also called His-tagged Lhx2 protein; source: E. coli, purified (Ni-NTA agarose beads)
Take B1: the binding result is on record as “binds”.

The values are drawn from paper PMC12322997, “Asxl1 regulates optic cup development through interaction with Lhx2 and epigenetic modulation of Wnt signaling” (Animal Cells and Systems, 2025).
